Results: article PMC4134560

Molecular target: BCL-xLΔC (BCL-xL construct lacking 22 C-terminal residues), Q07817
Sequence (Q07817 1-211, stated change not applied): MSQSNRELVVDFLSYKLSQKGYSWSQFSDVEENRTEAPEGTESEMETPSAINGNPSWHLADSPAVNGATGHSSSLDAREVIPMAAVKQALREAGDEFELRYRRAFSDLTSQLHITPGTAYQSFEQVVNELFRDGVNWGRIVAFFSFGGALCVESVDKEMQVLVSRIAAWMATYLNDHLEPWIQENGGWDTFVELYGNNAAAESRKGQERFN

Kd: 0.5 µM
B1: BAX BH3 domain peptide (peptide)
chain: STKKLSECLKRIGDELDSNM
modifications: not checked
